Source: the supplement of paper PMC9170038

Tested on: K4 kissing-loop RNA reporter
Test: apparent KD of K4 kissing-loop reporter; higher = weaker reporter binding
Conditions: Eterna round: R107
Method: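 RNA-MaP round R107: designed RNA switches with theophylline, tryptophan, arginine or FMN aptamers are transcribed on-chip within common flanks. They are titrated with a labelled K4 kissing-loop RNA reporter in RNA-MaP buffer (100 mM Tris pH 7.5, 80 mM KCl, 4 mM MgCl2), without ligand or with the indicated ligand. Median apparent KD per design.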

[1] = input ligand: theophylline 20 uM
[2] = input ligand: tryptophan 2.4 mM
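Also: bound reporter read as fluorescence of individual clusters on recovered sequencing chips by microscopy, with normalized cluster intensities fitted with a binding model.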

Sequence	apparent KD of K4 kissing-loop reporter (input ligand: FMN 200 uM) [nM]	apparent KD of K4 kissing-loop reporter (input ligand: arginine 13.2 mM) [nM]	apparent KD of K4 kissing-loop reporter (input ligand: none) [nM]	apparent KD of K4 kissing-loop reporter [1] [nM]	apparent KD of K4 kissing-loop reporter [2] [nM]
AUUAAUAUCACGGCCGCCACUGAAUAUUGUUUUUAUAUUUAGAAUAAUUGCCAGUGAUGUUGGAUCAGGACCGGGUGAGUUUAUA [JR_SSTryptoB_Sub007]	544	362	461	377	421
AAUCAAUACAGAAGGAGCGUGACAGUUGCGAGUGUAAUUUUAGCUAGUGAUGUUAGCAUUUCACAGGUAGGUCGCUGUACAUUUA [#05 K4 Arginine B Same State]	115	134	133	140	105
UAGCAUUUGCUCGAGUGAUGUUCGAGCGAAGGAGCGCGAGAAAUCGCAGGUAGGUCGCGCUCGAACUAUGAGCGAUCAUUUAUUG [Arg A Ex t2d]	363	232	312	395	331
AAUGUAAUGACGGCCGCCACUGAUUACCAGUGAUGUUGGUAAAGAACUUUAUAAGUCCUGGAAACCAGGACCGGGUCAACGGUCC [Tryp B Ex t1]	345	294	318	309	258
UGAUUGCCAGUGAUGUUGGCAUAAACUGAAGGAGCGCGUGAAAACGCAGGUAGGUCGCAGUACCAUGCCAAUUGAUCGAAAGAUC [KL-XArg-A2]	143	150	155	169	141
CUAUCGGUGCCAGUGAUGUUGGUACCGCCACGAGGACCGGUACGGCCGCCACUCGCAUUAGAUGAUCACACAGUGUAUACUGCUA [Aleusorza]	139	128	135	159	122
AACGCUGGAUGAAUAACAUCUAGCGAAAUUCGAGGACCGGUACGGCCGCCACUCGAGCUAACUGCGAGUGAUGUUCGAUAAUAAA [Mat - Mod of OpenEnded 3 - D5]	228	466	327	469	71.4
CCAUUCAUUUACGAUACCAGUCUAAUAUAUUGAAUCAAAACCCUCGCCGAGUGAUGUUCGGACCCUUGGCAGCGUCUGCGAGAGG [ddrdkmullin]	596	548	677	543	519
UCCAGCAGUACUGAUACCAGACUGCAUGUAGUGAUGUUGCAUAAGGGCAUAGAUGUCUCAGUCCCUUGGCAGCGGUACUGUUGCA [#09 K4 Theophylline B Same State]	379	294	325	251	286
GGAUUUGAAAGUGAGUGAUGUUCAUGUUGUGAGGAUAUGUAGAGAUAUAGAAGGCACGUUUGUAUUUUUUUUGUGUGAGAUUAAA [Last Minute #1]	81.5	64.9	65.1	75.2	65.5
GCGCGUCAUGUCAGCGGUGACUACGUCGAUACCAGCAGGGAAACCUGCCCUUGGCAGCGACGCGCUGGAGUGAUGUUCCGACGGC [#2 Exclusion - Theophylline A Attempt #7 (HarryS)]	184	176	180	318	159
AAGUGUGUGGCGGCCGCCACUAGUAUCCAGUGAUGUUGGAGAUAUCACGUAAGUGAUAUCCAACAUAGGACCGGGCCAUAUAGAA [Same State - Tryptophan B (Freestyle 17)]	145	78.3	101	189	93.1
AGGAGCGUGGGAUGUAAAUCGCACGCUCCUCGAGGACCGGUACGGCCGCCACUCGCUCGCGCCGAGUGAUGUUCGGCCGGCGAAC [#2 Same State - Tryptophan A Attempt #13 (HarryS)]	243	325	225	209	446
UAUUAAUUGACGGCCGCCACUAUUGUGAUUUAUUUGUUUGAGUGAUGUUUUGAUGUUUGAUUUUGUAGGACCGGGUUAUGUGUUA [zwzcmullin]	918	768	954	816	711
AUUUAAUUAACUGAUACCAGACUUUUUGUUUUGAUAAUUACUAGUGAUGUUAGUGUUUCUGUCCCUUGGCAGCAGAAUCUACUUA [JR_ExcTheophyB_Sub018]	145	280	179	347	137
AAUUCUUAUCUUAGUAGAUUUCUAAUUAAACGAGGACCGGUACGGCCGCCACUCGGUUAUGAGUGAUGUUCAUGGAAUUACAUAA [JR_SSTryptoA_Sub018]	285	486	467	486	172
GAUACCACGUUAGAUACCAGCUUCGUUGACUUGGGUAGUAGUCGAACUUCAGUGAUGUUGAGCCCUUGGCAGCUACAGAUGUGCG [theeternabot_exclusion_KL_Theo_B_38]	657	311	654	588	624
AAGGCGUCGAGUUUGGUGGCGCCAACAGAUACCAGAUUACCUCCAAUCCCUUGGCAGCUGGCUUGAGAGUGAUGUUUUCAAAAGU [theeternabot_sameState_KL_Theo_A_33]	532	447	627	528	349
UCUGUUGUAUAUGAUACCAGCAGUGAGAGACAGGAAGUAUAGUGAUGUUAUAUGAGAGAAUGCCCUUGGCAGCGUGUGCGGUUGG [SSTheophylB.W]	191	158	155	148	131
CUGUACAUCUCGGCCGCCACUGACCUAAGUGAUGUUAGGAAUGAAACCUAGUGAUGUUAGCAAACCAGGACCGGGAGGUGUGCAG [KL-SSTryp-B4 #Double Kiss]	110	33.4	83.2	40.2	51.8
GUGAGUGACGGAGGAUAUGCGAUAGAUGUAGGAAAAUUAGUGAUGUUAGUUAUGGUAGAGAUAGAAGUAGAAGGUUGGUGUGUGU [RHig 3/7]	551	394	561	585	395

Sequence	apparent KD of K4 kissing-loop reporter (input ligand: FMN 200 uM) [nM]	apparent KD of K4 kissing-loop reporter (input ligand: arginine 13.2 mM) [nM]	apparent KD of K4 kissing-loop reporter (input ligand: none) [nM]	apparent KD of K4 kissing-loop reporter [1] [nM]	apparent KD of K4 kissing-loop reporter [2] [nM]
AGCUGCCGAAUAGAUACCAGUGUCUUUAGUGAUGUUUCAGAGCUGGCACGAUCAGAAGGUCACCCUUGGCAGCUAGUGCCAGCGU [theeternabot_exclusion_KL_Theo_B_39]	340	145	261	344	267
GCAUCCUAGUCGGCCGCCACUAACAUGAGUGAUGUUCAUGUACGUCAGUGAUGUUGACGUAGUUAUAGGACCGGGACUAGGAUGC [KL-SSTryp-B7 Brourdwalk3]	146	119	137	118	120
GUAUCGCUAGGAGGAUAUUUCAUAUAACAUAUAAAUGGAUAUGCGGAGUGAUGUUCCGAUUUACGGAAAGAAGGCCUAGUGAUAC [FMN B 19]	119	172	192	207	172
UGAUAGGACAGAAGGAGCGGAAUCCUGUCAAAGACAGGAAAAUAAAUAAAAGGAGUGAUGUUCCAGGUAGGUCGCUGUCCUAUCU [ArgBX 19 #SwitchBubble #StaticStem]	271	210	248	243	215
UGACUGGACUGAAGGAGCGUGGAAGGAGCGUAAGUAGUGAUGUUGCUUACAGGUAGGUCGCCGCAGGUAGGUCGCAGUCUAGUCU	62.5	47.4	56.5	53.6	63.5
UCCUAGACUUAGCUAGGUAUAUAAUACGAUACCAGUCUAGAGAUAGACCCUUGGCAGCGUAGGCAGUGAUGUUGCCACUAGCUGA [Theo B SS t7a]	97.6	110	103	111	101
CAUUCGAAAUGCAGUGAUGUUGCAACUGAUACCAGUAUCGAAAGAUACCCUUGGCAGCGGAAAACCGCUACGUAUUUUUUGAAUG [Ex Theophylline A K4 25]	257	317	270	356	253
AUGCAUGAAAGUGAUGUUUUCAGUAAUGGAAAGGAUAUGCGCUGGUGCAGAAGGUUCUAAAGUGCAUCCAACAACUGGGUAGGCC [theeternabot_sameState_KL_FMN_A_36]	218	316	322	273	310
AACUUAAUUUAUAAGCAGUGAUGUUGCUCACGAGGACCGGUACGGCCGCCACUCGAUCGGACUUAGGUCUUCAAUUAUUUCAUUA [JR_ExcTryptoA_Sub017]	149	192	163	199	145
GGUGUUGUUUGUGCCGCCUUCCUCGUUCCUCGAGGACCGGUACGGCCGCCACUCGAGUGAUGUUUGGGUAGCGAUCCCUGCUAGU [Bdazzled - #12 Exc. Tryptophan A]	877	696	1000	822	892
GUACACUCUCGAGUGAUGUUCGGUAAUAGAGAGGAUAUCGCUUUUGCGAGAAGGCUCUGAAUGAGGAAACUCGUUCUGUGUGUAC [FMN A 20]	906	686	1160	858	894
GUUACGCAUGGAAGGAGCGCGAAAAUUUAUAGUGAGUGAUGUUCACAAAUAAGAAUAAUAACGCAGGUAGGUCGCCAUGUGUAAC [Ex Arginine B K4 5]	87.1	86.8	105	118	95.2
AGUGAUGUUUCUUUUAAGAGUGAUGUUUUUCGAGGACCGGUACGGCCGCCACUCGAGUGAUGAGUGCGUUGUUGUGAUGUUUAGU [#12 K4 Tryptophan A Exclusion]	461	313	425	459	303
UGAUACCAGACUGAUACCAGCCACAGAGUCAAAGACUCUGAUAAAGGUACCAGUGAUGUUGGCCCUUGGCAGCAGUCUGGUAUCU [TheoBX 17 #SwitchBubble #StaticStem]	158	126	143	151	141
AUUAAUUUCAGAGGAUAUCGUUAUUUUUUUAAGUAUAAUCUAUUUUGCAGUGAUGUUGCUAUUAAUCGAGAAGGCUGAUUUAUAA [JR_SSFMNB_Sub020]	109	140	75.3	136	72.2
GUGGUGGUGGCGGCCGCCACUGAAGAUAAUGAGUGAUGUUCAAGUGAUGUUAAUAAGAACAGUAUCAGGACCGGGCCACCACCAC [Default title]	37.5	27.7	34.1	25.4	33.8
AGCGGCGCGCUGGAUACCAGUGUCCGACGCGUUAGUAUAGAUCCAAAGUGAUGUUUUGGUCACCCUUGGCAGCCACCUCUGUCGG [theeternabot_exclusion_KL_Theo_B_29]	237	192	245	257	195
CACUCGGUAUCAGAUACCAGACUAUCGAUACCGAGUGUAUCGGGUAGUGAUGUUACCAUAGUCCCUUGGCAGCUGAUAUUGCAUA [Theo B SS t9b]	73.3	94.1	71.7	87.7	59.2
ACGUGCACCAGUGAUGUUGGAAAAUAUGAAGGAGCGGGAGAAAACCCAGGUAGGUCGCAUAAUUGCACGAGCCACGAAAGUGGCA [#15 K4 Arginine A Same State]	73.4	93.7	88.3	145	70.8
UGACUGGACUGAAGGAGCGCGAAACUCCUAGUGAUGUUAGGAAUACGAGACAAAGUCUCGACGCAGGUAGGUCGCAGUCUAGUCU [ArgBS 16 #SwitchBubble #StaticStem]	115	94.5	113	110	100
GGUGUGCCAAGUGAUGUUUGGCGUUCUCACCGAGGACCGGUACGGCCGCCACUCGUUAACUGACCAAGUAUCUUUACCUCGGAGA [theeternabot_sameState_KL_Trp_A_8]	168	141	159	187	156
